Results: patent US8541373B2, “BChE albumin fusions for the treatment of cocaine abuse” (priority 2009, dated 2013)

Tested on: cocaine
Assay: Plasma cocaine, benzoylecgonine and ecgonine methyl ester (LC-MS) and cocaine PK after IV cocaine post-AlbuBChE
Type: in vivo, cynomolgus monkeys
Conditions: 0.2 mg/kg IM
Experimental: Blood was placed into K2EDTA blood collection tubes with esterase inhibitor diisopropylfluorophosphate (DFP). Tubes were inverted several times and placed on wet ice upon collection. Samples were centrifuged at 2-8° C. within 45 minutes of collection. The resultant plasma was recovered and a single 200 μL aliquot of plasma was placed into polypropylene tubes. Plasma samples were frozen over dry ice and stored at −75±15° C.
The following outline describes the LC-MS-based assay employed for the measurement of cocaine in plasma samples. Prior to MS analysis, plasma samples, calibration standards and controls were extracted using supported liquid extraction (SLE-ISOLUTE, Biotage). Twenty-five microliters of samples (25 μL) received 150 μl of 5% Ammonium hydroxide and 25 μl internal standard solution (Cocaine-d3). After mixing and transfer to SLE plate, samples were eluted with methylene chloride and evaporated to dryness. After resuspension in 50 μl of reconstitution solution—5% ACM in 10 mM ammonium acetate in water, 10 μl was injected onto Thermo Hypercarb column at 0.5 ml/min. Mobile phase was biphasic. Mass spectrophotometric detection was performed using Api 4000, APCI positive interface and Multiple Reaction Monitoring (MRM). Plasma concentrations of cocaine, benzoylecgonine and ecgonine methyl ester were determined using this assay.
When the data permits, pharmacokinetic parameter values for cocaine and its metabolites were determined using plasma concentration-times profiles for individual animals at all the study days of cocaine administration. […] Specifically the model for non-compartmental analysis with IV bolus input for cocaine and extravascular input for the metabolites.

[1] = cocaine 1 mg/kg IV 2 hr post-AlbuBChE
[2] = cocaine 1 mg/kg IV 2 hr post-AlbuBChE, 5 min after cocaine
[3] = cocaine 1 mg/kg IV 2 hr post-AlbuBChE, 10 min after cocaine
[4] = cocaine 1 mg/kg IV 2 hr post-AlbuBChE, 15 min after cocaine
[5] = cocaine 1 mg/kg IV 2 hr post-AlbuBChE, 20 min after cocaine
[6] = cocaine 1 mg/kg IV 2 hr post-AlbuBChE, 30 min after cocaine
[7] = cocaine 1 mg/kg IV 2 hr post-AlbuBChE, 40 min after cocaine
[8] = cocaine 1 mg/kg IV 2 hr post-AlbuBChE, 60 min after cocaine
[9] = cocaine 1 mg/kg IV 48 hr post-AlbuBChE
[10] = cocaine 1 mg/kg IV 48 hr post-AlbuBChE, 5 min after cocaine
[11] = cocaine 1 mg/kg IV 48 hr post-AlbuBChE, 10 min after cocaine
[12] = cocaine 1 mg/kg IV 48 hr post-AlbuBChE, 15 min after cocaine
[13] = cocaine 1 mg/kg IV 48 hr post-AlbuBChE, 20 min after cocaine
[14] = cocaine 1 mg/kg IV 48 hr post-AlbuBChE, 30 min after cocaine
[15] = cocaine 1 mg/kg IV 48 hr post-AlbuBChE, 40 min after cocaine
[16] = cocaine 1 mg/kg IV 48 hr post-AlbuBChE, 60 min after cocaine
[17] = cocaine 1 mg/kg IV 96 hr post-AlbuBChE
[18] = cocaine 1 mg/kg IV 96 hr post-AlbuBChE, 5 min after cocaine
[19] = cocaine 1 mg/kg IV 96 hr post-AlbuBChE, 10 min after cocaine
[20] = cocaine 1 mg/kg IV 96 hr post-AlbuBChE, 15 min after cocaine
[21] = cocaine 1 mg/kg IV 96 hr post-AlbuBChE, 20 min after cocaine
[22] = cocaine 1 mg/kg IV 96 hr post-AlbuBChE, 30 min after cocaine
[23] = cocaine 1 mg/kg IV 96 hr post-AlbuBChE, 40 min after cocaine
[24] = cocaine 1 mg/kg IV 96 hr post-AlbuBChE, 60 min after cocaine
[25] = cocaine 1 mg/kg IV 120 hr post-AlbuBChE
[26] = cocaine 1 mg/kg IV 120 hr post-AlbuBChE, 5 min after cocaine
[27] = cocaine 1 mg/kg IV 120 hr post-AlbuBChE, 10 min after cocaine
[28] = cocaine 1 mg/kg IV 120 hr post-AlbuBChE, 15 min after cocaine
[29] = cocaine 1 mg/kg IV 120 hr post-AlbuBChE, 20 min after cocaine
[30] = cocaine 1 mg/kg IV 120 hr post-AlbuBChE, 30 min after cocaine

Q: How did the “Mean benzoylecgonine AUC(0-t)” value [1] turn out when AlbuBChE was run?
A: 3136 ng·min/mL

Q: And the “Mean cocaine AUC(0-t)” value [1]?
A: 11878 ng·min/mL

Q: What about the “Mean cocaine C0” value [1] of the same substance?
A: 628 ng/mL

Q: And the “Ecgonine methyl ester plasma concentration (mean)” value [2]?
A: 51.6 ng/mL

Q: What about the “Mean benzoylecgonine plasma concentration” value [2] of the same substance?
A: 50.6 ng/mL

Q: And the “Mean cocaine plasma concentration” value [2]?
A: 481 ng/mL

Q: And the “Ecgonine methyl ester plasma concentration (mean)” value [3]?
A: 81.9 ng/mL

Q: And the “Mean benzoylecgonine plasma concentration” value [3]?
A: 49.7 ng/mL

Q: And the “Mean cocaine plasma concentration” value [3]?
A: 370 ng/mL

Q: What about the “Ecgonine methyl ester plasma concentration (mean)” value [4] of the same substance?
A: 83.2 ng/mL

Q: And the “Mean benzoylecgonine plasma concentration” value [4]?
A: 50.4 ng/mL

Q: And the “Mean cocaine plasma concentration” value [4]?
A: 273 ng/mL

Q: And the “Ecgonine methyl ester plasma concentration (mean)” value [5]?
A: 154 ng/mL

Q: What about the “Mean benzoylecgonine plasma concentration” value [5] of the same substance?
A: 65.1 ng/mL

Q: What about the “Mean cocaine plasma concentration” value [5] of the same substance?
A: 227 ng/mL

Q: And the “Ecgonine methyl ester plasma concentration (mean)” value [6]?
A: 261 ng/mL

Q: What about the “Mean benzoylecgonine plasma concentration” value [6] of the same substance?
A: 28.6 ng/mL

Q: And the “Mean cocaine plasma concentration” value [6]?
A: 67.0 ng/mL

Q: And the “Ecgonine methyl ester plasma concentration (mean)” value [7]?
A: 120 ng/mL

Q: And the “Mean benzoylecgonine plasma concentration” value [7]?
A: 58.0 ng/mL

Q: And the “Mean cocaine plasma concentration” value [7]?
A: 115 ng/mL

Q: What about the “Ecgonine methyl ester plasma concentration (mean)” value [8] of the same substance?
A: 120 ng/mL

Q: And the “Mean benzoylecgonine plasma concentration” value [8]?
A: 60.5 ng/mL

Q: What about the “Mean cocaine plasma concentration” value [8] of the same substance?
A: 58.6 ng/mL

Q: What about the “Mean benzoylecgonine AUC(0-t)” value [9] of the same substance?
A: 1989 ng·min/mL

Q: And the “Mean cocaine AUC % Extrap” value [9]?
A: 15.1%

Q: What about the “Mean cocaine AUC(0-t)” value [9] of the same substance?
A: 7713 ng·min/mL

Q: What about the “Mean cocaine AUC(0-∞)” value [9] of the same substance?
A: 9094 ng·min/mL

Q: What about the “Mean cocaine C0” value [9] of the same substance?
A: 274 ng/mL

Q: And the “Mean cocaine CI” value [9]?
A: 110 mL/min/kg

Q: What about the “Mean cocaine Vss” value [9] of the same substance?
A: 3.503 L/kg

Q: What about the “Mean cocaine t½” value [9] of the same substance?
A: 21.2 min

Q: What about the “Ecgonine methyl ester plasma concentration (mean)” value [10] of the same substance?
A: 21.1 ng/mL

Q: What about the “Mean benzoylecgonine plasma concentration” value [10] of the same substance?
A: 27.3 ng/mL

Q: What about the “Mean cocaine plasma concentration” value [10] of the same substance?
A: 235 ng/mL

Q: What about the “Ecgonine methyl ester plasma concentration (mean)” value [11] of the same substance?
A: 19.5 ng/mL

Q: And the “Mean benzoylecgonine plasma concentration” value [11]?
A: 29.4 ng/mL

Q: What about the “Mean cocaine plasma concentration” value [11] of the same substance?
A: 203 ng/mL

Q: What about the “Ecgonine methyl ester plasma concentration (mean)” value [12] of the same substance?
A: 23.9 ng/mL

Q: And the “Mean benzoylecgonine plasma concentration” value [12]?
A: 29.0 ng/mL

Q: And the “Mean cocaine plasma concentration” value [12]?
A: 187 ng/mL

Q: What about the “Ecgonine methyl ester plasma concentration (mean)” value [13] of the same substance?
A: 25.8 ng/mL

Q: What about the “Mean benzoylecgonine plasma concentration” value [13] of the same substance?
A: 28.2 ng/mL

Q: And the “Mean cocaine plasma concentration” value [13]?
A: 146 ng/mL

Q: What about the “Ecgonine methyl ester plasma concentration (mean)” value [14] of the same substance?
A: 33.9 ng/mL

Q: And the “Mean benzoylecgonine plasma concentration” value [14]?
A: 37.1 ng/mL

Q: What about the “Mean cocaine plasma concentration” value [14] of the same substance?
A: 121 ng/mL

Q: What about the “Ecgonine methyl ester plasma concentration (mean)” value [15] of the same substance?
A: 50.7 ng/mL

Q: What about the “Mean benzoylecgonine plasma concentration” value [15] of the same substance?
A: 36.9 ng/mL

Q: And the “Mean cocaine plasma concentration” value [15]?
A: 77.8 ng/mL

Q: And the “Ecgonine methyl ester plasma concentration (mean)” value [16]?
A: 37.0 ng/mL

Q: And the “Mean benzoylecgonine plasma concentration” value [16]?
A: 35.6 ng/mL

Q: And the “Mean cocaine plasma concentration” value [16]?
A: 43.2 ng/mL

Q: And the “Mean benzoylecgonine AUC(0-t)” value [17]?
A: 3270 ng·min/mL

Q: What about the “Mean cocaine AUC % Extrap” value [17] of the same substance?
A: 14.9%

Q: And the “Mean cocaine AUC(0-t)” value [17]?
A: 11145 ng·min/mL

Q: What about the “Mean cocaine AUC(0-∞)” value [17] of the same substance?
A: 13008 ng·min/mL

Q: And the “Mean cocaine C0” value [17]?
A: 451 ng/mL

Q: What about the “Mean cocaine CI” value [17] of the same substance?
A: 78.1 mL/min/kg

Q: And the “Mean cocaine Vss” value [17]?
A: 2.506 L/kg

Q: What about the “Mean cocaine t½” value [17] of the same substance?
A: 21.1 min

Q: What about the “Ecgonine methyl ester plasma concentration (mean)” value [18] of the same substance?
A: 26.4 ng/mL

Q: What about the “Mean benzoylecgonine plasma concentration” value [18] of the same substance?
A: 49.7 ng/mL

Q: What about the “Mean cocaine plasma concentration” value [18] of the same substance?
A: 360 ng/mL

Q: What about the “Ecgonine methyl ester plasma concentration (mean)” value [19] of the same substance?
A: 39.4 ng/mL

Q: What about the “Mean benzoylecgonine plasma concentration” value [19] of the same substance?
A: 47.7 ng/mL

Q: And the “Mean cocaine plasma concentration” value [19]?
A: 301 ng/mL

Q: What about the “Ecgonine methyl ester plasma concentration (mean)” value [20] of the same substance?
A: 24.5 ng/mL

Q: What about the “Mean benzoylecgonine plasma concentration” value [20] of the same substance?
A: 52.6 ng/mL

Q: And the “Mean cocaine plasma concentration” value [20]?
A: 255 ng/mL

Q: And the “Ecgonine methyl ester plasma concentration (mean)” value [21]?
A: 29.8 ng/mL

Q: What about the “Mean benzoylecgonine plasma concentration” value [21] of the same substance?
A: 55.1 ng/mL

Q: And the “Mean cocaine plasma concentration” value [21]?
A: 189 ng/mL

Q: What about the “Ecgonine methyl ester plasma concentration (mean)” value [22] of the same substance?
A: 49.8 ng/mL

Q: And the “Mean benzoylecgonine plasma concentration” value [22]?
A: 56.5 ng/mL

Q: What about the “Mean cocaine plasma concentration” value [22] of the same substance?
A: 165 ng/mL

Q: And the “Ecgonine methyl ester plasma concentration (mean)” value [23]?
A: 50.2 ng/mL

Q: And the “Mean benzoylecgonine plasma concentration” value [23]?
A: 55.2 ng/mL

Q: And the “Mean cocaine plasma concentration” value [23]?
A: 118 ng/mL

Q: And the “Ecgonine methyl ester plasma concentration (mean)” value [24]?
A: 43.4 ng/mL

Q: What about the “Mean benzoylecgonine plasma concentration” value [24] of the same substance?
A: 57.8 ng/mL

Q: What about the “Mean cocaine plasma concentration” value [24] of the same substance?
A: 60.5 ng/mL

Q: And the “Mean benzoylecgonine AUC(0-t)” value [25]?
A: 3583 ng·min/mL

Q: And the “Mean cocaine AUC % Extrap” value [25]?
A: 16.1%

Q: And the “Mean cocaine AUC(0-t)” value [25]?
A: 11611 ng·min/mL

Q: And the “Mean cocaine AUC(0-∞)” value [25]?
A: 14059 ng·min/mL

Q: What about the “Mean cocaine C0” value [25] of the same substance?
A: 391 ng/mL

Q: And the “Mean cocaine CI” value [25]?
A: 72.5 mL/min/kg

Q: What about the “Mean cocaine Vss” value [25] of the same substance?
A: 2.338 L/kg

Q: What about the “Mean cocaine t½” value [25] of the same substance?
A: 23.0 min

Q: And the “Ecgonine methyl ester plasma concentration (mean)” value [26]?
A: 18.9 ng/mL

Q: What about the “Mean benzoylecgonine plasma concentration” value [26] of the same substance?
A: 55.1 ng/mL

Q: What about the “Mean cocaine plasma concentration” value [26] of the same substance?
A: 349 ng/mL

Q: What about the “Ecgonine methyl ester plasma concentration (mean)” value [27] of the same substance?
A: 28.9 ng/mL

Q: And the “Mean benzoylecgonine plasma concentration” value [27]?
A: 46.9 ng/mL

Q: And the “Mean cocaine plasma concentration” value [27]?
A: 312 ng/mL

Q: And the “Ecgonine methyl ester plasma concentration (mean)” value [28]?
A: 27.6 ng/mL

Q: And the “Mean benzoylecgonine plasma concentration” value [28]?
A: 53.1 ng/mL

Q: And the “Mean cocaine plasma concentration” value [28]?
A: 267 ng/mL

Q: What about the “Ecgonine methyl ester plasma concentration (mean)” value [29] of the same substance?
A: 34.5 ng/mL

Q: What about the “Mean benzoylecgonine plasma concentration” value [29] of the same substance?
A: 55.9 ng/mL

Q: And the “Mean cocaine plasma concentration” value [29]?
A: 218 ng/mL

Q: And the “Ecgonine methyl ester plasma concentration (mean)” value [30]?
A: 136 ng/mL

Q: And the “Mean benzoylecgonine plasma concentration” value [30]?
A: 64.2 ng/mL

Q: And the “Mean cocaine plasma concentration” value [30]?
A: 160 ng/mL
